Results taken from patent US20040166543.
Positions count from the first letter of the chain named.

Columns and labels:
MUC1/CD (S40A/S44A) = tested on: T1, MUC1/CD (S40A/S44A)
T1 sequence: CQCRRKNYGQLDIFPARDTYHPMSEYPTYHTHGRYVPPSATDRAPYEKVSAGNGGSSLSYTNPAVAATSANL

[1] = tested on: T2, MUC1/CD (purified hexahistidine tagged MUC1 cytoplasmic domain), unphosphorylated
T2 sequence: T1 sequence with A40S, A44S

MUC1/CD(S40A) = tested on: T3, MUC1/CD(S40A)
T3 sequence: T1 sequence with A44S

MUC1/CD(T41A) = tested on: T4, MUC1/CD(T41A)
T4 sequence: T1 sequence with A40S, T41A, A44S

MUC1/CD(S44A) = tested on: T5, MUC1/CD(S44A)
T5 sequence: T1 sequence with A40S

MUC1/CD(Y46F) = tested on: T6, MUC1/CD(Y46F)
T6 sequence: T1 sequence with A40S, A44S, Y46F

## purified recombinant PKCδ (PanVera / Calbiochem-Novabiochem)
MUC1/CD (S40A/S44A)
  phosphorylation ([γ-32P]ATP, autoradiography): phosphorylation of MUC1 by PKCδ was unaffected by S to A mutations of either or both of the flanking serines
[1]
  phosphorylation of MUC1/CD ([γ-32P]ATP, SDS-PAGE, autoradiography): demonstrated phosphorylation of MUC1 CD
MUC1/CD(S40A)
  phosphorylation ([γ-32P]ATP, autoradiography): phosphorylation of MUC1 by PKCδ was unaffected by S to A mutations of either or both of the flanking serines
MUC1/CD(T41A)
  phosphorylation ([γ-32P]ATP, autoradiography): PKCδ-mediated phosphorylation of MUC1/CD(T41A) was attenuated compared to that obtained with wild-type MUC1/CD
MUC1/CD(S44A)
  phosphorylation ([γ-32P]ATP, autoradiography): phosphorylation of MUC1 by PKCδ was unaffected by S to A mutations of either or both of the flanking serines

## purified c-Src polypeptide (Oncogene Research Products)
[1]
  phosphorylation of MUC1/CD ([γ-32P]ATP, SDS-PAGE, autoradiography): demonstrated c-Src-mediated phosphorylation of MUC1/CD
MUC1/CD(Y46F)
  phosphorylation of MUC1/CD(Y46F) ([γ-32P]ATP, autoradiography): Incubation of MUC1/CD(Y46F) with c-Src demonstrated a decrease in phosphorylation as compared to that found with wild-type MUC1/CD
